From US20090041767A1, “PHARMACEUTICAL COMBINATIONS” (priority 2007, published 2009) come the findings set out here.

This experiment has as its target mouse α5β1 (Mus musculus, UniProt P09055+P11688). Briefly: antibody binding to mouse α5β1 integrin.

Chain of mouse α5β1 (P11688 45-1053): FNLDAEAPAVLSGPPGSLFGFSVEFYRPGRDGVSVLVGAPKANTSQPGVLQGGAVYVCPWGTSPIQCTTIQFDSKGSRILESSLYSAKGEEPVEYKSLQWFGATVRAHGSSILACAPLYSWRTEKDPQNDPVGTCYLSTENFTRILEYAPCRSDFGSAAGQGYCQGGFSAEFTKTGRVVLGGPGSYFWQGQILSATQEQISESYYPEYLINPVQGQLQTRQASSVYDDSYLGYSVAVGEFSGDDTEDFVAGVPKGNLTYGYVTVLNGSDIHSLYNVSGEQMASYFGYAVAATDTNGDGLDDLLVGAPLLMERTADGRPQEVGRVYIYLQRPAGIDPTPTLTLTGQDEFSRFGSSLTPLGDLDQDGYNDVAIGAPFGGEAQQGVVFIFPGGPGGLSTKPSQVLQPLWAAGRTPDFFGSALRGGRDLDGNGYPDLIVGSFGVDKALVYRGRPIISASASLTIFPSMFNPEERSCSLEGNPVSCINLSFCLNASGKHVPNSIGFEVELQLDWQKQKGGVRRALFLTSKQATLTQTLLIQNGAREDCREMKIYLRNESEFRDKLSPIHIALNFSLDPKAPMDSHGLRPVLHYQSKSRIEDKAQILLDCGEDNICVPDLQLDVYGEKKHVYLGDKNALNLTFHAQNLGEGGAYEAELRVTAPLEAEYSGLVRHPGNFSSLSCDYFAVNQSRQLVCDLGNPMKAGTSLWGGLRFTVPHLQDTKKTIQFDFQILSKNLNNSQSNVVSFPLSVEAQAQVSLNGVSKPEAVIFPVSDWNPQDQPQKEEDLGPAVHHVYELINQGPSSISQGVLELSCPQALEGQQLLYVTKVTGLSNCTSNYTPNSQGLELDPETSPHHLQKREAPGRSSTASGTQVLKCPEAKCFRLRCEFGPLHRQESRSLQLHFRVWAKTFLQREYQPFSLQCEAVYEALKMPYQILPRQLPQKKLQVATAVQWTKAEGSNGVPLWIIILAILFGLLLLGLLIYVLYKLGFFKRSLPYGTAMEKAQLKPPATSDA
Chain of mouse α5β1 (P09055 21-798): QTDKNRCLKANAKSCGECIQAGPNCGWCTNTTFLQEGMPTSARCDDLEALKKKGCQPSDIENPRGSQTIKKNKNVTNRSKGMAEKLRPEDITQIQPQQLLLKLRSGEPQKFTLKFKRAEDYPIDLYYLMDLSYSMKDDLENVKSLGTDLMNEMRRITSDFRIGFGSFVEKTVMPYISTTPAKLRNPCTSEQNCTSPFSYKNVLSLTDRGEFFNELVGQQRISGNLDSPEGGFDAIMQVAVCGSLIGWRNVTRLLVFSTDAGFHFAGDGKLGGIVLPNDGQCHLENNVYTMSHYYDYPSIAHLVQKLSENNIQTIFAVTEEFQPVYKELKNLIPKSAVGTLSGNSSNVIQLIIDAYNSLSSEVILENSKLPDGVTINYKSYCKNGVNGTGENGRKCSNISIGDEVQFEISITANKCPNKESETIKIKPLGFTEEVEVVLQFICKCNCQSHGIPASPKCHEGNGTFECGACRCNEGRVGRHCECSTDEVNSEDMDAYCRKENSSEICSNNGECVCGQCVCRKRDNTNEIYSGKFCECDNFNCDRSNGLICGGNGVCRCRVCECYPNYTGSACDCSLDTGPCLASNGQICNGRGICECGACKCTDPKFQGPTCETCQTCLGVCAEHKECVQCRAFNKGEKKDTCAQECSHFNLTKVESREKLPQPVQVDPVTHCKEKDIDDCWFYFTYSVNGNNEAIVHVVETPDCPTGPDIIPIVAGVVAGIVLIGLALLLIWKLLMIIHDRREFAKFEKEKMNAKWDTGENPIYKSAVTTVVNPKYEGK

B1: 339.1: monoclonal antibody that targets murine α5β1; volociximab surrogate; VH SEQ ID NO: 22, VL SEQ ID NO: 23 (antibody, V domains shown)
VH: MDIRLSLAFLVLFIKGVQCEVYLVESGGGSVQPGRSTKLSCAASEFTFSTSSMAWVRQAPTKGLEWVATISSSGEYTYYRDSVKGRFTISRDNAKSTLYLQMNSLRSEDTATYYCTRGVLYWGQGVMVTVSS
VL: MAPVQLLGLLLLCLPAMRCDIQMTQSPSLLSASVGDRVTLNCKSSQNIYKNLNWYQQKLGEPPKLLIHYTDNLQAGIPSRFSGSGSGTDYTLTISSLHPDDVATYFCFQYNRGPTFGAGTKLELK
modifications: heavy chain variable region for mouse volociximab analog; light chain variable region for mouse volociximab analog
Take B1: the “binding to mouse α5β1” value is listed as “binds mouse α5β1 with high affinity”.
